The supplement of paper PMC10567573

B1: ZNF8 (parent)
chain: VHVIGVEEPSVGASMLFDIREST
B2: KRT34 (parent)
chain: PTVDLNQVLNETRSQYEALVETNR

Variants of: B1
Test: protein stability index of a GFP-peptide fusion (GPS, HEK-293T) (PSI 1-6); higher = more stable
Settings: c terminus: native
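Note: lentivirally expressed fusions sorted by FACS into six bins by GFP to DsRed ratio, PSI derived from sequencing read proportions per bin multiplied by bin number.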

Protein stability index of substitutions, site by site:
L16: C 2.19 | P 2.48 | R 2.98 | N 3.6 | Q 2.87 | Y 2.31 | I 2.06 | H 2.71 | S 2.83 | V 2 | E 3.17 | F 1.58 | W 1.41 | G 2.95 | K 2.64 | D 3.53 | M 1.94 | T 2.44 | A 2.52
M15: Y 2.2
R20: W 2.43 | H 2.68 | Y 1.81 | F 2.49 | S 2.63 | N 3.1 | V 1.57 | P 2.48 | K 2.4 | Q 2.36 | I 1.86 | C 1.85 | L 1.55 | D 2.96 | A 1.64 | T 2.4 | G 2.37 | E 3.26 | M 1.79
T23: D 2.37 | I 1.69 | L 1.79 | E 2.37 | M 2.14 | G 2.12 | F 1.61 | N 2.14 | K 2.22 | C 1.76 | R 2.63 | S 2.48 | P 2.04 | H 2.45 | Y 1.76 | Q 2.09 | V 2.06 | A 2.01
E21: I 3.55 | D 2.38 | T 2.01 | Y 2.4 | K 2.2 | Q 1.29 | N 2.08 | W 3.39 | F 2.77 | R 1.53 | S 1.76 | C 2.9 | P 1.42 | A 2.37 | H 1.95 | M 2.04 | G 2.42 | V 1.78 | L 2.64
S22: E 2.58 | I 1.69 | G 1.79 | W 1.36 | K 2.3 | D 2.62 | A 2.38 | V 1.55 | R 1.92 | N 3.08 | L 1.68 | T 2.35 | F 2.23 | M 2.55 | C 2.52 | H 2.55 | Q 2.2 | P 2.42 | Y 1.59
F17: E 3.91 | W 2.28 | K 3.4 | L 2.03 | P 3.77 | R 3.08 | C 2.71 | H 3.17 | S 3.11 | N 3.33 | A 3.44 | T 2.68 | I 1.74 | G 3.66 | V 2.21 | D 3.79 | Q 3.41 | Y 2.15 | M 2.52
I19: L 2.04 | D 3.65 | N 3.23 | E 3.34 | Q 3.4 | P 3.1 | C 2.37 | G 2.72 | W 1.51 | R 2.7 | K 3.14 | A 3.07 | F 1.64 | Y 2.06 | T 2.91 | S 3.29 | M 2.33 | H 3.37 | V 2.38
D18: Y 2.55 | S 1.75 | A 1.69 | L 3 | W 2.19 | Q 1.98 | T 1.69 | C 2.4 | K 1.42 | G 1.65 | I 3.24 | F 2.25 | M 2.02 | N 2.48 | E 1.31 | P 1.84 | R 1.59 | V 2.9 | H 1.39

Variants of: B2
Test: as above
Settings: c terminus: a fixed tail appended

Protein stability index: each site, then its substitutions
P1: D 4.12 | N 3.21 | L 2.88 | E 2.82 | Q 3.77 | R 3.43 | I 2.42 | Y 2.84 | V 2.5 | A 3.41 | K 3.83 | M 3.31 | W 2.95 | C 2.77 | S 3.82 | H 3.97 | G 3.5 | F 3.22 | T 3.96
Q7: T 2.75 | N 3.92 | Y 3.65 | D 3.66 | H 4 | P 4.79 | S 3.62 | K 3.98 | C 3.95 | M 3.62 | W 3.08 | E 3.25 | L 4.08 | R 3.65 | V 2.37 | I 2.99 | A 3.13 | G 4.25 | F 3.61
T2: G 4.14 | F 1.89 | E 2.78 | I 2.99 | L 1.85 | N 3.72 | R 3.66 | V 2.52 | Q 2.71 | D 3.82 | C 2.67 | K 3.14 | M 1.85 | S 3.27 | H 3.38 | P 3.01 | Y 1.65 | W 1.4
V3: M 2.45 | R 2.92 | K 2.76 | T 3.89 | N 4.46 | C 4.07 | W 5.02 | I 3.7 | Q 3.05 | D 4.76 | E 4.03 | P 4.62 | G 4.15 | A 3.63 | S 4.28 | L 2.65 | Y 2.83 | H 3.8 | F 3.65
L9: Q 3.36 | S 5.03 | V 4.28 | G 4.64 | R 4.36 | C 4.45 | H 4.66 | E 4.52 | M 4.21 | A 4.09 | Y 3.61 | D 5.55 | P 5.34 | W 4.04 | K 4.45 | N 4.76 | F 3.45 | I 3.14 | T 4.61
N10: A 2.44 | Q 2.5 | K 2.7 | F 2.63 | H 3.19 | P 4.55 | E 2.41 | L 1.58 | I 2.47 | D 3.74 | C 2.82 | M 2.49 | G 4.35
D4: V 4.02 | Q 4.34 | E 4.01 | N 4.38 | Y 3.44 | L 3.56 | H 3.56 | G 3.62 | C 2.97 | A 4.21 | K 3.94 | P 3.05 | F 3.19 | I 3.58 | R 4.48 | T 3.5 | W 2.59 | S 2.73 | M 3.21
L5: K 4.8 | C 3.68 | F 3.92 | T 4.8 | N 4.57 | S 4.13 | D 4.67 | P 3.77 | A 2.51 | E 4.61 | Y 2.77 | W 3.3 | R 4.53 | M 4.24 | G 4.68 | V 2.86 | H 3.8 | I 2.24 | Q 4.38
V8: Q 4.3 | H 3.52 | Y 2.29 | A 3.56 | S 4.18 | T 3.76 | W 2.56 | D 4.64 | L 1.43 | N 4.58 | R 4.67 | K 4.22 | G 4.2 | M 2.88 | I 3.57 | P 4.2 | E 4.4 | C 3.48
N6: P 4.8 | S 3.33 | R 3.9 | A 2.48 | M 1.9 | L 2.14 | F 2.42 | V 2 | D 2.79 | K 2.98 | Q 2.56 | W 2.5 | T 3.05 | H 2.92 | E 2.56 | C 2.51 | I 2.03 | G 3.79 | Y 1.71
